Values quoted from earlier work in publication PMC12355045.
pKd: −log10 of the molar value.

Molecular target: hemoglobin αβ dimer (Homo sapiens) (UniProt P69905)

pKd: 6.00
Substance: hemoglobin αβ dimer (from UniProt P69905)
